Data: patent publication US20220204643A1 (published 2022)

What was measured:
[1] = biological target: T1, UTP6 small subunit processome component (human, UniProt Q9NYH9 1-597); test: protein array
T1 construct: on protein array
T1 sequence: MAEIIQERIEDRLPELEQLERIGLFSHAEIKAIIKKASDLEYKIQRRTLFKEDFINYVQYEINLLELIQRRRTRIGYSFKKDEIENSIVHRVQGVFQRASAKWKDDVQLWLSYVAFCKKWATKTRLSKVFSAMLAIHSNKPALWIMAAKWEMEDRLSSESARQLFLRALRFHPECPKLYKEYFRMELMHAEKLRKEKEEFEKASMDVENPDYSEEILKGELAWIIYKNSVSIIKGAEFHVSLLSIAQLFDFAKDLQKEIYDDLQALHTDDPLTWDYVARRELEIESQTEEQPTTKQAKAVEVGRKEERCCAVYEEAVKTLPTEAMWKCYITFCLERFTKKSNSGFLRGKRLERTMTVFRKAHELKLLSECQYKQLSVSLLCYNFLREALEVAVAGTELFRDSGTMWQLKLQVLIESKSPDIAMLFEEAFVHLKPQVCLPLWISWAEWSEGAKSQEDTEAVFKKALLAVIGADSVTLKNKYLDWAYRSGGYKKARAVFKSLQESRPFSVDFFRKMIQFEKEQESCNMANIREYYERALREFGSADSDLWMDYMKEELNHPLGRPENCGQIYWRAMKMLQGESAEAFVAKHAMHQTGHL

[2] = biological target: T2, glyoxylate and hydroxypyruvate reductase (human, UniProt Q9UBQ7 1-328); test: protein array
T2 construct: on protein array; also called GRHPR
T2 sequence: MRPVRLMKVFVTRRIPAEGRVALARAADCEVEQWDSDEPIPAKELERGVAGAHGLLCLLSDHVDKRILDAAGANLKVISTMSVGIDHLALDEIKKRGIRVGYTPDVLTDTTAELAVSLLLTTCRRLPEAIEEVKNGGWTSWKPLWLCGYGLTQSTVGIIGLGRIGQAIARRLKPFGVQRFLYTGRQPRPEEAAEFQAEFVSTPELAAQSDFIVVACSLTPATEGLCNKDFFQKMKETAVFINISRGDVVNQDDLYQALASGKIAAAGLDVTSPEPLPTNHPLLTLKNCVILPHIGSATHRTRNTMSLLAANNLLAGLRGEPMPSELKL

Dexd-box helicase 52 = biological target: T3, Dexd-box helicase 52 (human, UniProt Q9Y2R4 1-599); test: protein array
T3 construct: on protein array; also called DDX52
T3 sequence: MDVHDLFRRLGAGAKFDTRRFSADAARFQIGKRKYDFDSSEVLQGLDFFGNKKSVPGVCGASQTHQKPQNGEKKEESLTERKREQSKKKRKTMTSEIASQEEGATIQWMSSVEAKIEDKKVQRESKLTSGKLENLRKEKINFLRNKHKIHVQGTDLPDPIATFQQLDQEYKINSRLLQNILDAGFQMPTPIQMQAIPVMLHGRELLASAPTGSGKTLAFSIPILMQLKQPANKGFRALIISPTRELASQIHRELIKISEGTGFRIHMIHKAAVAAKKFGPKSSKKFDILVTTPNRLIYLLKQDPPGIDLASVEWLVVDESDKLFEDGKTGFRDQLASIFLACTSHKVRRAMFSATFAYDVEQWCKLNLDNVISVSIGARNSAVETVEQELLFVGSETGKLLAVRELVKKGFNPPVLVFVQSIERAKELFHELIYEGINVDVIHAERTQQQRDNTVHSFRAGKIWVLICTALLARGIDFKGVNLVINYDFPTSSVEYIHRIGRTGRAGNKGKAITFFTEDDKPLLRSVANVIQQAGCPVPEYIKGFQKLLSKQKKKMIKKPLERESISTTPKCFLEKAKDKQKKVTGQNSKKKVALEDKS

[3] = biological target: T4, G protein-coupled receptor 4 (human, UniProt P46093 1-362); test: protein array
T4 construct: on protein array; also called GPR4

[4] = biological target: T5, influenza virus NS1A binding protein (human, UniProt Q9Y6Y0 1-642); test: protein array
T5 construct: on protein array; also called IVNS1ABP
T5 sequence: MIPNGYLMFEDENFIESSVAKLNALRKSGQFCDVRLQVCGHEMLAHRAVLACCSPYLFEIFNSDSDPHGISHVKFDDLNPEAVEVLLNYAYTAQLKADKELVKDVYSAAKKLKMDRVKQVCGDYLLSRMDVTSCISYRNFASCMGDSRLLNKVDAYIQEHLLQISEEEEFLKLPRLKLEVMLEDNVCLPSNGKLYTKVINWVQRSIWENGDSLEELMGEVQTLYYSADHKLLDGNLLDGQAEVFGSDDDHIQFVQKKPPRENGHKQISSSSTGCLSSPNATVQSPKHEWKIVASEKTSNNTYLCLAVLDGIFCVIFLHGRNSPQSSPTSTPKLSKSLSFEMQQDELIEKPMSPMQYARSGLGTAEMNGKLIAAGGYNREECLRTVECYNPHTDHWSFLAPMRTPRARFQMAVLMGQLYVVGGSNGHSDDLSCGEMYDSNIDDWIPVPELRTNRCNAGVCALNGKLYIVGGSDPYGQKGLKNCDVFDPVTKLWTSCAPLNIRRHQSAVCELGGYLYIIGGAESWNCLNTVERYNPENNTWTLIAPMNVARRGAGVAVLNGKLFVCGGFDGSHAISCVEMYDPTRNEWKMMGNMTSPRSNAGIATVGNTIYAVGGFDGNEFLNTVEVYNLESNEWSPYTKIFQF

[5] = biological target: T6, BAF chromatin remodeling complex subunit BCL7C, transcript variant 2 (human, UniProt Q8WUZ0 1-217); test: protein array
T6 construct: on protein array

[6] = biological target: T7, proliferating cell nuclear antigen, transcript variant 1 (human, UniProt P12004 1-261); test: protein array
T7 construct: on protein array; also called PCNA

programmed cell death 1 = biological target: T8, programmed cell death 1 (human, UniProt Q15116 25-288); test: protein array, with experimental replicate
T8 construct: on protein array; also called PDCD1

[7] = biological target: T9, acyl-CoA binding domain containing 6 (human, UniProt Q9BR61 1-282); test: protein array
T9 construct: on protein array; also called ACBD6
T9 sequence: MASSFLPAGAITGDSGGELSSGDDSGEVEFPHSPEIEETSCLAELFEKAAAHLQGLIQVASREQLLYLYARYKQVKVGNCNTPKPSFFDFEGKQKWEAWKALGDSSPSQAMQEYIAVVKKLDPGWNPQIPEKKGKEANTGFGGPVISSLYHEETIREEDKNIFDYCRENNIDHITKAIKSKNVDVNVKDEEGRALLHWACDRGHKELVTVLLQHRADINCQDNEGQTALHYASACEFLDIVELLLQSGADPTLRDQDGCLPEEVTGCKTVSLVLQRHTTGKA

phosducin like = biological target: T10, phosducin like (human, UniProt Q13371 2-301); test: protein array
T10 construct: on protein array; also called PDCL
T10 sequence: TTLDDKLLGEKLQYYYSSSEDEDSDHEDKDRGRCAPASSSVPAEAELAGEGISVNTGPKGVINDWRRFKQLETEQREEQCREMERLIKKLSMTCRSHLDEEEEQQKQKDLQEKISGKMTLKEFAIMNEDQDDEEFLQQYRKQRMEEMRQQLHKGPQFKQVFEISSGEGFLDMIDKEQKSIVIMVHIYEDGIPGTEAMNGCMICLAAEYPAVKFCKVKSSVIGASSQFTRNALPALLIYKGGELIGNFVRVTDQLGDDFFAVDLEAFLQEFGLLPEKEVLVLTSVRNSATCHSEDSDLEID

G antigen 2A = biological target: T11, G antigen 2A (human, UniProt Q6NT46 1-116); test: protein array
T11 construct: on protein array; also called GAGE2A
T11 sequence: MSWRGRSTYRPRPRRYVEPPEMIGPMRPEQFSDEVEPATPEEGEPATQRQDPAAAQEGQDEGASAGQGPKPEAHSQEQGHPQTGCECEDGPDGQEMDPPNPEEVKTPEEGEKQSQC

[8] = biological target: T12, phosphoglucomutase 2 like 1 (human, UniProt Q6PCE3 1-622 at identity 1.00)); test: protein array
T12 construct: on protein array; also called PGM2L1
T12 sequence: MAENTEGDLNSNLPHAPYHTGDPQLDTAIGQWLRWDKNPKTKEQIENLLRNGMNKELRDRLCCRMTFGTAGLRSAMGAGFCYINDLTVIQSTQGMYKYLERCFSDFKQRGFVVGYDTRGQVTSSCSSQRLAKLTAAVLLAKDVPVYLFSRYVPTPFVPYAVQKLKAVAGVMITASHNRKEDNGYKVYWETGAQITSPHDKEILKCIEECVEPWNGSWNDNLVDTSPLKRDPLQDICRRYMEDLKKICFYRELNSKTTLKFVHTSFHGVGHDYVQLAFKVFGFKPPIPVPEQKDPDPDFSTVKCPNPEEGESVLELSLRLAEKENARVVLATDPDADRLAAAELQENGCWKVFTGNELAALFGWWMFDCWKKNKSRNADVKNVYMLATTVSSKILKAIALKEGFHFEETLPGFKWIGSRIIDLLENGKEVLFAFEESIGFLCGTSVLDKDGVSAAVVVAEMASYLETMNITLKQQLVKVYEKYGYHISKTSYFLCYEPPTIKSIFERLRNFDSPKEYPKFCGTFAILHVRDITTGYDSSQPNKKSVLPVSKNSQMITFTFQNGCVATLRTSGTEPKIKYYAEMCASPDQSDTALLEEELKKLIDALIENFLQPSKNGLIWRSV

T4 sequence (P46093 whole entry): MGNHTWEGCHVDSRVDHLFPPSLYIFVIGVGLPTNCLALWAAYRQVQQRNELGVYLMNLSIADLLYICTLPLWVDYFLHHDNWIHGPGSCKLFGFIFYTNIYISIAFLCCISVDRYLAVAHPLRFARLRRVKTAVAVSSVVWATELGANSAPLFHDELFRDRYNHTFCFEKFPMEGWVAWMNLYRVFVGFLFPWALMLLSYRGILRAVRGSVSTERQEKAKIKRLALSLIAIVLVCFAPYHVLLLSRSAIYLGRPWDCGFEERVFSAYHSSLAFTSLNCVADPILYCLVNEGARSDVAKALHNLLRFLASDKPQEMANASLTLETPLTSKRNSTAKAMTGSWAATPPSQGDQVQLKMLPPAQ
T8 sequence (Q15116 25-288 limits assumed): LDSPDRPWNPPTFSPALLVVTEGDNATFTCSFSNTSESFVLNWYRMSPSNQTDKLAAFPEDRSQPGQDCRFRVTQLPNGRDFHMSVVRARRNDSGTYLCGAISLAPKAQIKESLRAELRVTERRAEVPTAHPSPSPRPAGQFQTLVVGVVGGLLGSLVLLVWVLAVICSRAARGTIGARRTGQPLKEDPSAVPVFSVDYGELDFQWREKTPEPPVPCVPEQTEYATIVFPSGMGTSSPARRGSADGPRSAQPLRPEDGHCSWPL
T7 sequence (P12004 whole entry, change not shown): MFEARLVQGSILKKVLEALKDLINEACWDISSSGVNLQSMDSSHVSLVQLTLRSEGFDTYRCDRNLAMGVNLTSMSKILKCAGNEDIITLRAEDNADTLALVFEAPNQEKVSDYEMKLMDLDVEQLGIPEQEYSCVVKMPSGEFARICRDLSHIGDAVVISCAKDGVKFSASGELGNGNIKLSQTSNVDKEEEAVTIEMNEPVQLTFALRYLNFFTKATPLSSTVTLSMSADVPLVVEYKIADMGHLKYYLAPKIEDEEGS

B1: TUCE1005 (antibody, V domains shown)
VH: QVQLQESGPGLVKPSETLSLTCTVSGGSISSYYWSWIRQPAGKGLEWIGRIYTSGSTNYNPSLKSRVTMSVDTSKNQFSLKMSSVTAADTAVYYCARGELLFDHWGQGTLVTVSS
VL: not shown
notes: VH/VL tied via antigen in summary, not by name in this stretch
B1: binds [1].

B2: TTES1004 (antibody, V domains shown)
VH: EVQLVESGGGLVQPGGSLRLSCVASGFTFSSYSMNWVRQAPGKGLKWVSYISSSRSTIYNADSVKGRFTISRDNAKKSLYLQMNSLRAEDTAVYYCARVSVAAPTCLDYWGQGTLVTVSS
VL: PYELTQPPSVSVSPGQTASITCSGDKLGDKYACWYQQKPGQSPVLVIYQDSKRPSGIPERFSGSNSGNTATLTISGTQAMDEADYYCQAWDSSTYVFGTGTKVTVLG
notes: as for B1
B2: binds [2].

B3: TTES1008 (antibody, V domains shown)
VH: QVQLVESGGGVVQPGRSLRLSCAASGFIFSSYGMHWVRQAPGKGLEWVAVISYDGSNKYYADSVKGRFTISRDKSKNTLHLQMNSLRAEDTAVYYCAKDSGSNDDMDVWGKGTTVTVSS
VL: QSVLTQPPSVSAAPGQKVTISCSGSSSNIGNNYVSWYQQLPGTAPKLLIYDNNKRPSGIPDRFSGSKSGTSATLGITGLQTGDEADYYCGTWDSSLSAGVFGTGTKVTVLG
notes: as for B1
B3: binds (Dexd-box helicase 52); binds [3].

B4: TTHY1003 (antibody, V domains shown)
VH: QVQLVQSGAEMKKPGTSVKVSCRTSGYIFTGSFMHWVRQAPAQGLEWMGWINPKTGATYYTEKFKGRVTLTRDTSINTAYMEMTSLRSDDTAVYYCARGFCDLPACYPVPQYNWFDPWGQGTLVTVSS
VL: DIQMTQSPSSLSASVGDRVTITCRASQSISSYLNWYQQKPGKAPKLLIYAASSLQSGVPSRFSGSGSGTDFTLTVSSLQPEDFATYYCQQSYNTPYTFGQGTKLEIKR
notes: as for B1
B4: binds [4]; binds [5].

B5: TTHY1002 (antibody, V domains shown)
VH: EVQVVESGGGLGQPGGSLRLSCAASGFTFSSYSMNWVRQAPGKGLEWVSYISSSSSTKYYADSVKGRFTISRDNAKKSLYLQMNSLRDEDTAVYYCASPVRPWGQGTLVTVSS
VL: EIVMTQSPATLSVSPGERATLSCRASQSVSSNLAWYQQKPGQAPRLLIYGASTRATGIPARFSGSGSGTEFTLTISSLQSEDFAIYYCQQYNSWPAFGGGTKVEIK
notes: as for B1
B5: binds [6].

B6: TTES1003 (antibody, V domains shown)
VH: VVQLVESGGGLVQPGGSLRLSCSASGFTFSSYAMHWVRQAPGKGLEYVSAISSNGGSTYYADSVKGRFTISRDNSKNTLYLQMSSLRAEDTAVYYCVKSPVAANDAFDIWGQGTMVTVSS
VL: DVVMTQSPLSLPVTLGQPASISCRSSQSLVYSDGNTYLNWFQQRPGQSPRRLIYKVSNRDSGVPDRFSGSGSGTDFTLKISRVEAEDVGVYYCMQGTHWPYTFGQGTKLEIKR
notes: as for B1
B6: binds (programmed cell death 1).

B7: TTES1006 (antibody, V domains shown)
VH: EVQLVESGGGLVQPGGSLRLSCAASGFTFSKFWMHWVRQAPGKGLVWLSRINTDGTVTTYADSVKGRFTISRDNAKSTLYLQMNSLRVEDTAVYYCAGGGSQVDFWGQGTLVTVSS
VL: PYELTQPPSVSVSPGQTASIACSGDNLGNKYAWWYRQKPGQSPVLVMYKDNKRPSGIPERFSGSNSGNTATLTISGTQAMDEADYYCQTWDSSTVIFGGGTKLTVQ
notes: as for B1
B7: binds [7].

B8: TTES1007 (antibody, V domains shown)
VH: QITLKESGPTLVKPTQTLTLTCTFSGFSLTTTGVGVGWIRQPPGKALEWLALIYWDDDKRYSPSLKSRLIITKDTSKNQVVLTMTNMDPVDTATYYCAHRFGRGVSYYYYGMDVWGQGTTVTVSS
VL: not shown
notes: as for B1
B8: binds (phosducin like).

B9: TTES1012 (antibody, V domains shown)
VH: EVQLVESGGGLVQPGGSLRLSCAASGFTFSSYWMTWVRQAPGKGLEWVANIKQDGSEKYYVDSVKGRFTISRDNSKNSLYLQMNSLRAEDTAVYYCARAGYDLFGWFDPWGQGTLVTVSS
VL: SYELTQPPSVSVSPGQTARITCSGDALPKQYAYWYQQKPGQAPVLVIYKDSERPSGIPERFSGSSSGTTVTLTISGVQAEDEADYYCQSADSSGTYVFGTGTKVTVLG
notes: as for B1
B9: binds (G antigen 2A).

B10: TTES1002 (antibody, V domains shown)
VH: QVQLQESGPGLVKPSETLSLICTVSGASVNSGTHFWSWIRQPPGKGLEWIGYVYYSGNTNYNPSLKSRVAISVDTSKNQFSLKLTSVTSADTAVYYCARDFDDGYDIRYWGQGTRVSVSS
VL: QSALTQPASVSGSPGQSITISCTGSSNDIGRYKYVSWFQHHPGRAPKLIIYEVNNRPSGLSHRFSGSKSGNTASLTISGLQAEDEADYYCCSYTSSLTYVFGTGTAVTVL
notes: as for B1
B10: binds [8].
